± gives the uncertainty stated by the source.

A short description of the data set: protein stability index of a GFP-peptide fusion (yeast GPS) (PSI 1-4); higher = more stable; sorted into four equal gates, so the index is relative within each strain. The procedure, abridged: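 Tiled 17-residue peptides from yeast proteins were fused downstream of GFP on a plasmid that also expresses Cherry, and the pooled library was carried in yeast. Mid-log cultures grown in leucine-free medium were sorted into four equal gates by GFP/Cherry fluorescence ratio. Plasmids from each gate were PCR-amplified and Illumina-sequenced, and reads were assigned to strains by barcodes. Each peptide's protein stability index is the sum, over gates, of the gate's read frequency multiplied by its gate number.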

On to GEYSVKLLKGATLYIPK [FAS2], for which the protein stability index is, setting by setting: (pdr5∆) 2.87 ± 0.21; (san1∆) 2.9 ± 0.12.
Turning to LVSEARTLWPEFIPPDP [SSN8], the protein stability index worked out at 2.61 ± 0.041 (doa10∆), 2.8 ± 0.043 (pdr5∆), 2.73 ± 0.038 (san1∆) and 3.03 ± 0.033 (ubr1∆).
On the same counts, the results for TVTDDARIFEFPKTTVA [RPL18A] are 2.68 ± 0.056, 2.7 ± 0.048, 2.7 ± 0.061 and 2.42 ± 0.057.
In turn, DVNTNANANANATANAT [SNF11] showed a protein stability index (doa10∆) of 3.13 ± 0.088, a protein stability index (pdr5∆) of 3.27 ± 0.081, a protein stability index (san1∆) of 3.23 ± 0.045 and a protein stability index (ubr1∆) of 3.32 ± 0.063.
With KNSFQQALQMKAMDIPI [SWP82], the protein stability index was 1.29 ± 0.035 (doa10∆), 1.55 ± 0.055 (pdr5∆), 1.37 ± 0.064 (san1∆) and 1.59 ± 0.038 (ubr1∆).
As to DTDSKPSSQSQNDTPMF [YLR018C/POM34], the protein stability index (doa10∆) came to 2.89 ± 0.044, the protein stability index (pdr5∆) turned out to be 3.17 ± 0.048, the protein stability index (san1∆) turned out to be 3 ± 0.039 and the protein stability index (ubr1∆) amounted to 2.95 ± 0.034.
On the same counts, the results for PRSDDLEATWNFIEPGI [CDC53] are 3.04 ± 0.15, 3.29 ± 0.13, 3.15 ± 0.096 and 3.02 ± 0.11.
With HEFKLIVGKKIQEFLVV [GRR1], the protein stability index by setting is: (doa10∆) 2.73 ± 0.046; (pdr5∆) 2.09 ± 0.062; (san1∆) 2.38 ± 0.076; (ubr1∆) 2.4 ± 0.059.
HSPFPFNRTKGKMVRAQ [PRP8]: the protein stability index is, setting by setting: (doa10∆) 1.84 ± 0.2; (pdr5∆) 1.16 ± 0.14; (ubr1∆) 1.05 ± 0.094.
As for AYVVNDTAPKPNIVEID [DLS1], the protein stability index reads like this: (doa10∆) 3.26 ± 0.24; (pdr5∆) 3.22 ± 0.19; (san1∆) 2.97 ± 0.11; (ubr1∆) 3.15 ± 0.19.
For LANFVAKGFYHTPMVNF [SRB8], the protein stability index runs as follows: (doa10∆) 2.57 ± 0.059; (pdr5∆) 2.27 ± 0.044; (san1∆) 1.92 ± 0.082; (ubr1∆) 2.32 ± 0.048.
Turning to FRTVKEMVKDRGYFITQ [RPB5], the protein stability index reads like this: (doa10∆) 2.52 ± 0.069; (pdr5∆) 2.08 ± 0.071; (san1∆) 1.72 ± 0.065; (ubr1∆) 2.08 ± 0.041.
On the same counts, the results for HYGQTLGKKKNVKEEET [RPS8A] are 2.62 ± 0.035, 2.84 ± 0.035, 2.38 ± 0.033 and 2.879 ± 0.026.
In the case of FKYLLGVTDLFRHFIGI [ISW2], the protein stability index was determined as 2.17 ± 0.056 (doa10∆), 1.35 ± 0.048 (pdr5∆), 1.25 ± 0.12 (san1∆) and 1.3 ± 0.071 (ubr1∆).
Take KSAYANTEKDYKMVQEQ [SMC2]: the protein stability index (doa10∆) stood at 2.95 ± 0.053, the protein stability index (pdr5∆) is 3.02 ± 0.066, the protein stability index (san1∆) turned out to be 3.19 ± 0.04 and the protein stability index (ubr1∆) was found to be 3.21 ± 0.049.
As to DENDSKKNNAASELANP [YAR002W/NUP60], the protein stability index reads like this: (doa10∆) 2.97 ± 0.078; (pdr5∆) 2.99 ± 0.052; (san1∆) 3.05 ± 0.047; (ubr1∆) 2.97 ± 0.047.
For PLKFKLGPLSYQNMAFI [YJR042W/NUP85], the protein stability index reads like this: (doa10∆) 2.42 ± 0.064; (pdr5∆) 2.55 ± 0.06; (san1∆) 2.58 ± 0.062; (ubr1∆) 2.6 ± 0.049.
The like results for GTISIQLKNGLLEKYNT [MTR3] were, in that order, 2.28 ± 0.059, 2.5 ± 0.073, 2.42 ± 0.082 and 2.43 ± 0.037.
With EDNGIVKALRNVPGVET [RPL4A], the protein stability index turned out to be 1.77 ± 0.16 (doa10∆), 2.46 ± 0.11 (san1∆) and 2.47 ± 0.19 (ubr1∆).
Take DDQLKQRRQNIRDLEKL [RPT4]: the protein stability index runs as follows: (doa10∆) 2.81 ± 0.23; (pdr5∆) 3.11 ± 0.29; (san1∆) 3.12 ± 0.13; (ubr1∆) 3.15 ± 0.16.
As to QETEGTNRHTLALETVL [SIR3], the protein stability index is, setting by setting: (doa10∆) 2.72 ± 0.063; (pdr5∆) 2.57 ± 0.054; (san1∆) 2.53 ± 0.06; (ubr1∆) 2.83 ± 0.041.
Take NTLLVTGPFKVNGVPLR [RPL6B]: the protein stability index reads like this: (doa10∆) 2.74 ± 0.12; (pdr5∆) 2.66 ± 0.082; (san1∆) 2.63 ± 0.081; (ubr1∆) 2.74 ± 0.045.
For the sequence VIEAKINHEDGFIETTE [RPN3], the protein stability index runs as follows: (doa10∆) 1.17 ± 0.16; (pdr5∆) 1.37 ± 0.11; (san1∆) 1.3 ± 0.19; (ubr1∆) 1.13 ± 0.083.
The like results for QPKGVILYGPPGTGKTL [RPT6] were, in that order, 3.47 ± 0.15, 2.91 ± 0.21, 3.3 ± 0.15 and 2.95 ± 0.21.
The sequence RTRRLKRKRRKVRARSK [RPL41A] gave a protein stability index (pdr5∆) of 3.13 ± 0.22 and a protein stability index (ubr1∆) of 3.22 ± 0.2.
Take TGTGLQDENIGLSMLAK [RPC31]: the protein stability index by setting is: (doa10∆) 3.12 ± 0.14; (san1∆) 3.05 ± 0.13; (ubr1∆) 3.4 ± 0.11.
With KKKRKKKNKSAIDGIFG [RMP1], the protein stability index (doa10∆) stood at 2.47 ± 0.045, the protein stability index (pdr5∆) turned out to be 2.83 ± 0.045, the protein stability index (san1∆) was determined as 2.81 ± 0.042 and the protein stability index (ubr1∆) turned out to be 3.03 ± 0.038.
Turning to TSLLYLSTLEPSTSITL [RPN9], the protein stability index is, setting by setting: (doa10∆) 2.36 ± 0.059; (pdr5∆) 1.89 ± 0.049; (san1∆) 1.91 ± 0.089; (ubr1∆) 2.13 ± 0.045.
With WVAPQESSHEQEEFVQF [ECM29], the protein stability index worked out at 3.26 ± 0.15 (doa10∆) and 3.42 ± 0.13 (pdr5∆).
Turning to HKNERRVLEIQTSLVRM [SKI6], the protein stability index came to 2.99 ± 0.091 (doa10∆), 2.63 ± 0.078 (pdr5∆), 2.44 ± 0.13 (san1∆) and 2.96 ± 0.053 (ubr1∆).
For VALTGLLIRSKTEDPKG [YML031W/NDC1], the protein stability index runs as follows: (doa10∆) 1.71 ± 0.041; (pdr5∆) 2.21 ± 0.042; (san1∆) 1.73 ± 0.052; (ubr1∆) 2.28 ± 0.032.
With SEGSGSSLVQKGLETID [RPC53], the protein stability index (doa10∆) was determined as 3.35 ± 0.16, the protein stability index (pdr5∆) amounted to 3.14 ± 0.14 and the protein stability index (ubr1∆) was 3.08 ± 0.063.
SALEQAIIYQRGKDGKL [YGL100W/SEH1] came in with a protein stability index (doa10∆) of 2.93 ± 0.073, a protein stability index (pdr5∆) of 3.22 ± 0.051, a protein stability index (san1∆) of 3.15 ± 0.047 and a protein stability index (ubr1∆) of 3 ± 0.06.
Consider DFDGDEMNLHVPQTEEA [RPO31], for which the protein stability index by setting is: (doa10∆) 3.03 ± 0.071; (pdr5∆) 3.31 ± 0.068; (san1∆) 2.99 ± 0.063; (ubr1∆) 3.18 ± 0.051.
In the case of LGKKKATVDEFPLCVHL [RPL10], the protein stability index reads like this: (doa10∆) 3.1 ± 0.19; (pdr5∆) 2.67 ± 0.14; (san1∆) 3 ± 0.29; (ubr1∆) 2.71 ± 0.069.

The values above are taken from the supplement of paper PMC9732359.
